Where a chain is given by its changes, count along the chain named.
T1: human CXCR2 (human, UniProt P25025 1-360)
T1 construct: also called hCXCR2; C-X-C motif chemokine receptor 2
T1 sequence: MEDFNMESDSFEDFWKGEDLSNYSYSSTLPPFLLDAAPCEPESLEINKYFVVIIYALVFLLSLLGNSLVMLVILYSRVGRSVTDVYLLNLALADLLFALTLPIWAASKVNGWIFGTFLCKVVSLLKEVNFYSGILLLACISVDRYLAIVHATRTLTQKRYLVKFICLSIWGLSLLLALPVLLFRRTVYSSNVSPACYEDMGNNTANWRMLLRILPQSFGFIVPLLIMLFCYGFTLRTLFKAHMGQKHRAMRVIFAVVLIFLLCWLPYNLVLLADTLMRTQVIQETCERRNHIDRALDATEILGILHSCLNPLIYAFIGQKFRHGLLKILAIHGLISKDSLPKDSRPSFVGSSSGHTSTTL

T2: human CXCR2 (UniProt P25025 1-360)
T2 chain: T1 sequence

T3: human CCR6 (human, UniProt P51684 1-374)
T3 construct: whole, on cells; also called hCCR6
T3 sequence (looked up): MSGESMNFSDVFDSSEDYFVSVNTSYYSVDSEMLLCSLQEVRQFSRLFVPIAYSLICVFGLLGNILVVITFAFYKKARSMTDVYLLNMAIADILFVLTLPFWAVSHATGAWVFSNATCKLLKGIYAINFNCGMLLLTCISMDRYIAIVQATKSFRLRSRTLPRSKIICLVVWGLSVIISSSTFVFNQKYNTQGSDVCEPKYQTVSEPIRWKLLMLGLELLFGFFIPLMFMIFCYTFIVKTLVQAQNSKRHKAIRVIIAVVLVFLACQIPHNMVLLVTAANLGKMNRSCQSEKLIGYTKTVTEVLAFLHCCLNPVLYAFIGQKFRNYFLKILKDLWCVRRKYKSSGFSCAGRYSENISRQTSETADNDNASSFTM

T4: human CXCR3 (human, UniProt P49682 1-368)
T4 construct: whole, on cells; also called hCXCR3
T4 sequence (looked up): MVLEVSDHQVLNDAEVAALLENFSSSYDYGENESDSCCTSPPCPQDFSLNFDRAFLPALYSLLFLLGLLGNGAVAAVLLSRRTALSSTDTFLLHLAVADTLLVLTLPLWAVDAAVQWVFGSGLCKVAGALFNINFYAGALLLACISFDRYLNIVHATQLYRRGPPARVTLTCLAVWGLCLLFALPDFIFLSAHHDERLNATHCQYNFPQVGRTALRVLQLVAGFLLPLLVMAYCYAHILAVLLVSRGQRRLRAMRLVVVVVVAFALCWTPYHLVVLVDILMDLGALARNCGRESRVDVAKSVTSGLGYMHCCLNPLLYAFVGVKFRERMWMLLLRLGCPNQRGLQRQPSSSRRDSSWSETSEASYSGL

T5: human CXCR1 (human, UniProt P25024 1-350)
T5 construct: whole, on cells; also called hCXCR1
T5 sequence (looked up): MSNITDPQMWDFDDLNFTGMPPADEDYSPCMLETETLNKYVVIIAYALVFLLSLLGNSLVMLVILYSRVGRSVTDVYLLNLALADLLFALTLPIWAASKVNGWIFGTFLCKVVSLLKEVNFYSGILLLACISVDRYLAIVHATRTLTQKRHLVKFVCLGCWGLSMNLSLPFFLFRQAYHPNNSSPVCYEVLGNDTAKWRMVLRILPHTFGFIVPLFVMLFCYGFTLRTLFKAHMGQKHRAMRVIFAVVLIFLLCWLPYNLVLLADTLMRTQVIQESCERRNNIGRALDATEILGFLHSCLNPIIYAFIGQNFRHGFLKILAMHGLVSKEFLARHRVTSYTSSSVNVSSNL

T6: Peptide 3 (human, biotinylated (position not given))
T6 construct: Biotinylated peptide of the human CXCR2 N-terminal region; also called Nter-3; Peptide 3/Nter-3
T6 peptide: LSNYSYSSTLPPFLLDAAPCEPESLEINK

T7: Peptide 1 (human, biotinylated (position not given))
T7 construct: Biotinylated peptide of the human CXCR2 N-terminal region, captured on streptavidin plates; also called Nter-1; Peptide 1/Nter-1
T7 peptide: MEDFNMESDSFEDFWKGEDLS

T8: Peptide 2 (human, biotinylated (position not given))
T8 construct: Biotinylated peptide of the human CXCR2 N-terminal region, captured on streptavidin plates; also called Nter-2; Peptide 2/Nter-2
T8 peptide: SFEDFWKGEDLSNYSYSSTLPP

T9: biotinylated peptide corresponding to the second extracellular loop of human CXCR2 (human, UniProt P25025 184-208, limits assumed, biotinylated (position not given))
T9 construct: domain: second extracellular loop; also called 2nd loop
T9 peptide (looked up): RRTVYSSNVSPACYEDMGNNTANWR

B1: m3H9 (antibody, mouse IgG3, V domains shown)
VH: QVQLQQSGPELVKPGASVKISCKASGYAFSNSWMNWVKQRPGKGLEWIGRIYPGDGNINYYGKFKDKATLTADKSSNTAYMQLSSLTSEDSAVYFCARSFLYVDFDYWGQGTTLTVSS
VL: VIVMTQTPLSLPVSLGDQASISCRSSQSLVHSNGNTYLQWYLQKPGQSPKLLIYKVSNRFSGVPDRFSGSGSGTDFTLKISRVEAEDLGVYFCSQGTHVPYTFGGGTKLEIKR
notes: also called mouse 3H9; purified mouse 3H9 mAb
B2: m6G7 (antibody, V domains shown)
VH: B1 VH
VL: B1 VL with V1D, I2V, T7A, S28T
notes: Mouse hybridoma monoclonal antibody
B3: mCM2 (antibody, V domains shown)
VH: B1 VH with D104Y
VL: B1 VL with V1D, I2A, V56L, S72A, G96S
notes: as for B2
B4: h3H9 (antibody, V domains shown)
VH: QVQLVQSGAEVKKPGASVKVSCKASGYAFSNSWMNWVRQAPGQRLEWIGRIYPGDGNINYYGKFKDKATLTADKSANTAYMELSSLRSEDTAVYFCARSFLYVDFDYWGQGTTLTVSS
VL: B1 VL with V1D, T7S, S14T, L15P, D17E, Q18P, K50Q, L88V, G105Q

Legend:
human CXCR2 [1] = biological target: T1, human CXCR2; assay: ELISA, L1.2 hCXCR2 cells
human CXCR2 [2] = biological target: T1, human CXCR2; assay: flow cytometry on L1.2 hCXCR2 cells
human CXCR2 [3] = biological target: T1, human CXCR2; assay: competition with 125I-labelled CXCL3 (GRO-g) for CXCR2 on human neutrophils
Method: For ligand binding analysis, recombinant human GRO-g (“ligand”) was obtained from Peprotech (New Jersey, USA). 1251-Bolton-Hunter-labelled GRO-g was purchased from Perkin-Elmer (Boston, Mass., USA), with a specific activity of 2200 Ci/mM. Cells were washed once in binding buffer (50 mM Hepes, pH 7.5, 1 mM CaCI, 5 mM MgCb, 0.5% BSA) and resuspended in binding buffer at a concentration of 2.5×10^6 cells/ml. Cold Purified monoclonal antibody (cold competitor) was added to a 96-well plate followed by an equal volume (40 μl) binding buffer containing 1×10^5 cells. Cells and competitor were preincubated at room temperature for 15 min. Then radiolabeled ligand (final concentration 0.5-2 nM) was added to each well to give a final reaction volume of 120 μl. After a 60-min incubation at room temperature, the cells were washed three times with 1 ml of binding buffer containing 150 mM NaCl. The radioactivity (amount of bound label) in the cell pellets was counted in a TopCount liquid scintillation counter (Packard). Non-specific background binding was calculated by incubating cells […] radiolabelled-ligand. Samples were assayed in duplicate.

human CXCR2 [4] = biological target: T2, human CXCR2; assay: flow cytometry, CXCR2 L1.2 cells
human CXCR7 = biological target: T10, human CXCR7 (human, UniProt P25106 1-362); assay: flow cytometry on transfected cells
T10 construct: whole, on cells; also called hCXCR7
T10 sequence (P25106 whole entry): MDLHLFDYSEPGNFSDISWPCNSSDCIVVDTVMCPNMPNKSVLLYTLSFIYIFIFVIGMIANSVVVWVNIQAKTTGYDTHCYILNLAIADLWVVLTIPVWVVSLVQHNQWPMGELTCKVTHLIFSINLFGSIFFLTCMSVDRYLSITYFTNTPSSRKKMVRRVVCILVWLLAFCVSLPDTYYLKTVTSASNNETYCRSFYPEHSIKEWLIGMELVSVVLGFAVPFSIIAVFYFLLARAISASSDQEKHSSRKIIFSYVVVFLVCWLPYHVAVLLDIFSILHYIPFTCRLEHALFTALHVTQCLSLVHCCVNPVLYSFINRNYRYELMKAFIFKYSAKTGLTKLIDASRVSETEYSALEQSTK
Method: (§1) To assess reactivity of mAbs against transfected cells, we used indirect immunofluorescence staining and flow cytometry. Cells were washed once with PBS and resuspended in 100 μl PBS containing 2% (wt/vol) BSA and 0.1% (wt/vol) sodium azide (staining buffer) and purified antibody. After 30 min at 4° C., cells were washed twice with staining buffer and resuspended in 50 μl PE-conjugated anti-human IgG (Jackson ImmunoResearch Laboratories) diluted 1:500 in staining buffer for the detection of humanized mAbs or 50 μl PE-conjugated anti-mouse IgG (Jackson ImmunoResearch Laboratories) for the detection of mouse mAbs. After incubating for 20 min at 4° C., cells were washed twice with staining buffer and analyzed on LSRII flow cytometer. 7-AAD staining was used to exclude dead cells.

human CCR6 = biological target: T3, human CCR6; assay: flow cytometry on transfected cells
Method: as §1

human CXCR3 = biological target: T4, human CXCR3; assay: flow cytometry on transfected cells
Method: as §1

human CXCR1 = biological target: T5, human CXCR1; assay: flow cytometry on transfected cells
Method: as §1

Peptide 3 = biological target: T6, Peptide 3; assay: ELISA on biotinylated peptide captured on streptavidin
Method: (§2) Epitope mapping studies were performed to determine the region within CXCR2 that is recognized by anti-CXCR2 mAb. Initially, biotinylated peptides corresponding to the N-terminal region and the first, second and third extracellular loops of human CXCR2 were used in an ELISA.
(§3) Three overlapping biotinylated peptides spanning the entire N-terminal region of human CXCR2 were then synthesized and used in more defined anti-CXCR2 mAb epitope mapping studies. Peptide 1 ([…]) (SEQ ID NO:53) corresponds to amino acid position 1-21 of the human CXCR2; Peptide 2 ([…]) (SEQ ID NO:55) corresponds to amino acid position 10-31 and Peptide 3 ([…]) (SEQ ID NO:54) corresponds to amino acid 20-46 position of the human CXCR2. Briefly, multiwell plates were coated with streptavidin and washed before the biotinylated peptides were added to separate wells and incubated to facilitate binding of the peptides to the plate. Different anti-human CXCR2 antibodies were then tested by adding the respective antibodies to the wells of the plate and incubating the plate. An isotype control and buffer only were included as negative controls. Following washing, appropriate conjugated antibodies were added and the plates were incubated. The plates were washed again and binding of the antibodies to the immobilised peptides was visualised.

Peptide 1 = biological target: T7, Peptide 1; assay: as above
Method: as §2, §3

Peptide 2 = biological target: T8, Peptide 2; assay: as above
Method: as §2, §3

[5] = biological target: T9, biotinylated peptide corresponding to …; assay: as above
Method: as §2, §3

Binder	EC50 (human CXCR2 [1])	EC50 (human CXCR2 [2])	IC50 (human CXCR2 [3])	EC50 (human CXCR2 [4])	binding result (human CXCR7)	binding result (human CCR6)	binding result (human CXCR3)	binding result (human CXCR1)	binding result (Peptide 3)	binding result (Peptide 1)	binding result (Peptide 2)	binding result [5]
B1	1.2 nM	1.05 nM	0.7 nM	1.5 nM	no binding	no binding	no binding	no binding	no binding	binds	binds	no binding
B2	1.46 nM	1.28 nM	3.4 nM	–	no binding	no binding	no binding	no binding	no binding	binds	binds	no binding
B3	1.4 nM	1.35 nM	11.1 nM	–	no binding	no binding	no binding	no binding	no binding	binds	binds	no binding
B4	–	–	–	2.2 nM	–	–	–	–	–	–	–	–

From patent US20190016809A1 (MONASH UNIVERSITY, published 2019)
